Results taken from patent publication US20160022764A1 (RHYTHM PHARMACEUTICALS, published 2016).
Bridge positions count the residues as written; N and C are the ends. Square brackets hold non-standard residues; d marks the D form. Ends that are not written are not given here. dTle = CC(C)(C)[C@@H](N)C(=O)O; Pen = CC(C)(S)[C@H](N)C(=O)O; hCys = N[C@@H](CCS)C(=O)O

B1: Compound 17: Ac-Arg-cyclo[hCys-D-Ala-D-Phe-Arg-Trp-Pen]-NH2 (peptide)
peptide: Ac-R[hCys][dA][dF]RW[Pen]-NH2
modifications: disulfide 2-7
SMILES: CC(=O)N[C@@H](CCCNC(=N)N)C(=O)N[C@H]1CCSSC(C)(C)[C@@H](C(N)=O)NC(=O)[C@H](Cc2c[nH]c3ccccc23)NC(=O)[C@H](CCCNC(=N)N)NC(=O)[C@@H](Cc2ccccc2)NC(=O)[C@@H](C)NC1=O
B2: Compound 15: Ac-Arg-cyclo[hCys-Ala-D-Phe-Arg-Trp-Cys]-NH2 (peptide)
peptide: Ac-R[hCys]A[dF]RWC-NH2
modifications: disulfide 2-7
SMILES: CC(=O)N[C@@H](CCCNC(=N)N)C(=O)N[C@H]1CCSSC[C@@H](C(N)=O)NC(=O)[C@H](Cc2c[nH]c3ccccc23)NC(=O)[C@H](CCCNC(=N)N)NC(=O)[C@@H](Cc2ccccc2)NC(=O)[C@H](C)NC1=O
B3: Compound 13: Ac-Arg-cyclo[Cys-D-Ala-Pro-D-Phe-Arg-Trp-Cys]-NH2 (peptide)
peptide: Ac-RC[dA]P[dF]RWC-NH2
modifications: disulfide 2-8
SMILES: CC(=O)N[C@@H](CCCNC(=N)N)C(=O)N[C@H]1CSSC[C@@H](C(N)=O)NC(=O)[C@H](Cc2c[nH]c3ccccc23)NC(=O)[C@H](CCCNC(=N)N)NC(=O)[C@@H](Cc2ccccc2)NC(=O)[C@@H]2CCCN2C(=O)[C@@H](C)NC1=O
B4: Compound 8: Ac-Arg-cyclo[Cys-D-Ala-Gln-D-Phe-Arg-Trp-Cys]-NH2 (peptide)
peptide: Ac-RC[dA]Q[dF]RWC-NH2
modifications: disulfide 2-8
SMILES: CC(=O)N[C@@H](CCCNC(=N)N)C(=O)N[C@H]1CSSC[C@@H](C(N)=O)NC(=O)[C@H](Cc2c[nH]c3ccccc23)NC(=O)[C@H](CCCNC(=N)N)NC(=O)[C@@H](Cc2ccccc2)NC(=O)[C@H](CCC(N)=O)NC(=O)[C@@H](C)NC1=O
B5: Compound 22: Ac-Glu-cyclo[Cys-Ala-His-D-Phe-Arg-Trp-Cys]-NH2 (peptide)
peptide: Ac-ECAH[dF]RWC-NH2
modifications: disulfide 2-8
SMILES: CC(=O)N[C@@H](CCC(=O)O)C(=O)N[C@H]1CSSC[C@@H](C(N)=O)NC(=O)[C@H](Cc2c[nH]c3ccccc23)NC(=O)[C@H](CCCNC(=N)N)NC(=O)[C@@H](Cc2ccccc2)NC(=O)[C@H](Cc2c[nH]cn2)NC(=O)[C@H](C)NC1=O
B6: Compound 16: Ac-Arg-cyclo[hCys-D-Ala-D-Phe-Arg-Trp-Cys]-NH2 (peptide)
peptide: Ac-R[hCys][dA][dF]RWC-NH2
modifications: disulfide 2-7
SMILES: CC(=O)N[C@@H](CCCNC(=N)N)C(=O)N[C@H]1CCSSC[C@@H](C(N)=O)NC(=O)[C@H](Cc2c[nH]c3ccccc23)NC(=O)[C@H](CCCNC(=N)N)NC(=O)[C@@H](Cc2ccccc2)NC(=O)[C@@H](C)NC1=O
B7: Compound 9: Ac-Arg-cyclo[Cys-D-Ala-Asn-D-Phe-Arg-Trp-Cys]-NH2 (peptide)
peptide: Ac-RC[dA]N[dF]RWC-NH2
modifications: disulfide 2-8
SMILES: CC(=O)N[C@@H](CCCNC(=N)N)C(=O)N[C@H]1CSSC[C@@H](C(N)=O)NC(=O)[C@H](Cc2c[nH]c3ccccc23)NC(=O)[C@H](CCCNC(=N)N)NC(=O)[C@@H](Cc2ccccc2)NC(=O)[C@H](CC(N)=O)NC(=O)[C@@H](C)NC1=O
B8: Compound 7: Ac-Arg-cyclo[Cys-D-Ala-Trp-D-Phe-Arg-Trp-Cys]-NH2 (peptide)
peptide: Ac-RC[dA]W[dF]RWC-NH2
modifications: disulfide 2-8
SMILES: CC(=O)N[C@@H](CCCNC(=N)N)C(=O)N[C@H]1CSSC[C@@H](C(N)=O)NC(=O)[C@H](Cc2c[nH]c3ccccc23)NC(=O)[C@H](CCCNC(=N)N)NC(=O)[C@@H](Cc2ccccc2)NC(=O)[C@H](Cc2c[nH]c3ccccc23)NC(=O)[C@@H](C)NC1=O
B9: Compound 10: Ac-Arg-cyclo[Cys-D-Ala-Arg-D-Phe-Arg-Trp-Cys]-NH2 (peptide)
peptide: Ac-RC[dA]R[dF]RWC-NH2
modifications: disulfide 2-8
SMILES: CC(=O)N[C@@H](CCCNC(=N)N)C(=O)N[C@H]1CSSC[C@@H](C(N)=O)NC(=O)[C@H](Cc2c[nH]c3ccccc23)NC(=O)[C@H](CCCNC(=N)N)NC(=O)[C@@H](Cc2ccccc2)NC(=O)[C@H](CCCNC(=N)N)NC(=O)[C@@H](C)NC1=O
B10: Compound 11: Ac-Arg-cyclo[Cys-D-Ala-Tyr-D-Phe-Arg-Trp-Cys]-NH2 (peptide)
peptide: Ac-RC[dA]Y[dF]RWC-NH2
modifications: disulfide 2-8
SMILES: CC(=O)N[C@@H](CCCNC(=N)N)C(=O)N[C@H]1CSSC[C@@H](C(N)=O)NC(=O)[C@H](Cc2c[nH]c3ccccc23)NC(=O)[C@H](CCCNC(=N)N)NC(=O)[C@@H](Cc2ccccc2)NC(=O)[C@H](Cc2ccc(O)cc2)NC(=O)[C@@H](C)NC1=O

These binders were tested against melanocortin-5 receptor (human, UniProt P33032 1-325) (assay: cell-based or functional assay).
Chain of melanocortin-5 receptor (P33032 whole entry): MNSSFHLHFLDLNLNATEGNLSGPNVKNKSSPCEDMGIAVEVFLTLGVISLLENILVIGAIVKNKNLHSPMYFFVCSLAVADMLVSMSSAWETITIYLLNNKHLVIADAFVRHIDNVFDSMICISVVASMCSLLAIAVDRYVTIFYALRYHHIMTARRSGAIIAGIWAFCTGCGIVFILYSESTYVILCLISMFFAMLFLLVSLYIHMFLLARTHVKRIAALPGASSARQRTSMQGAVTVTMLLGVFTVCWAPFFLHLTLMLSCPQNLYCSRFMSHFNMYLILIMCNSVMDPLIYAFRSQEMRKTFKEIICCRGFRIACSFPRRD

Row | Binder | Ratios of EC50 values: MC5/4 | cAMP Assay (EC-50)
1 | B1 | 159 | 2180 nM
2 | Ac-RC[dTle]H[dF]RWC-NH2 (disulfide 2-8) [Compound 3: Ac-Arg-cyclo[Cys-D-Tle-His-D-Phe-Arg-Trp-Cys]-NH2] |  | 672 nM
3 | RCAHFRWC (cysteine pairing not given here; also: further groups not given here) [Peptide 1] |  | 1600 nM
4 | Ac-RC[dI]H[dF]RWC-NH2 (disulfide 2-8) [Compound 2: Ac-Arg-cyclo[Cys-D-Ile-His-D-Phe-Arg-Trp-Cys]-NH2] | 420 | 420 nM
5 | Ac-RC[dV]H[dF]RWC-NH2 (disulfide 2-8) [Compound 4: Ac-Arg-cyclo[Cys-D-Val-His-D-Phe-Arg-Trp-Cys]-NH2] | 584 | 782 nM
6 | B2 | 161 | 42 nM
7 | B3 | 13 | 707 nM
8 | B4 | 155 | 255 nM
9 | B5 | > 2560 | 1280 nM
10 | B6 | > 1340 | > 10000 nM
11 | Ac-RC[dA][His(1-Me)][dF]RWC-NH2 (disulfide 2-8) [Compound 6: Ac-Arg-cyclo[Cys-D-Ala-His(1-Me)-D-Phe-Arg-Trp-Cys]-NH2] |  | 467 nM
12 | B7 | 530 | 1490 nM
13 | Ac-RC[dL]H[dF]RWC-NH2 (disulfide 2-8) [Compound 1: Ac-Arg-cyclo[Cys-D-Leu-His-D-Phe-Arg-Trp-Cys]-NH2] | 130 | 91 nM
14 | Ac-RC[dA][His(3-Me)][dF]RWC-NH2 (disulfide 2-8) [Compound 5: Ac-Arg-cyclo[Cys-D-Ala-His(3-Me)-D-Phe-Arg-Trp-Cys]-NH2] |  | 1080 nM
15 | B8 | 7 | 259 nM

The binders below were run against melanocortin-3 receptor (human, UniProt P41968 1-323) (assay: cell-based or functional assay).
Chain of melanocortin-3 receptor (P41968 whole entry): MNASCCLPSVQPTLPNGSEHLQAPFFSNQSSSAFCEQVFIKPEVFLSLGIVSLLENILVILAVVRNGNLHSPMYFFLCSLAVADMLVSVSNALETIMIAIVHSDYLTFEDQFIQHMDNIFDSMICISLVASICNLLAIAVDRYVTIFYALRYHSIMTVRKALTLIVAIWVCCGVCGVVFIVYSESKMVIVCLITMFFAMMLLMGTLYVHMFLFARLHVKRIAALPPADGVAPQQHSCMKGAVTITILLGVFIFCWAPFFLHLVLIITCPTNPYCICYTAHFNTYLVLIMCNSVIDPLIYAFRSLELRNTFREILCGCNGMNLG

Row | Binder | Ratios of EC50 values: MC3/4 | cAMP Assay (EC-50)
16 | B1 | 17 | 233 nM
17 | Ac-RC[dTle]H[dF]RWC-NH2 (disulfide 2-8) [Compound 3: Ac-Arg-cyclo[Cys-D-Tle-His-D-Phe-Arg-Trp-Cys]-NH2] |  | 0.7 nM
18 | B9 | 1.45 | 3.9 nM
19 | Ac-RC[dI]H[dF]RWC-NH2 (disulfide 2-8) [Compound 2: Ac-Arg-cyclo[Cys-D-Ile-His-D-Phe-Arg-Trp-Cys]-NH2] | 0.96 | 0.96 nM
20 | Ac-RC[dV]H[dF]RWC-NH2 (disulfide 2-8) [Compound 4: Ac-Arg-cyclo[Cys-D-Val-His-D-Phe-Arg-Trp-Cys]-NH2] | 1.19 | 1.59 nM
21 | B2 | 3.8 | 1 nM
22 | B3 | > 200 | > 10000 nM
23 | B4 | 5 | 8.6 nM
24 | B5 | > 20 | 9.9 nM
25 | B6 | 420 | 3160 nM
26 | Ac-RC[dA][His(1-Me)][dF]RWC-NH2 (disulfide 2-8) [Compound 6: Ac-Arg-cyclo[Cys-D-Ala-His(1-Me)-D-Phe-Arg-Trp-Cys]-NH2] |  | 4.3 nM
27 | B10 | > 22.2 | > 1000 nM
28 | B7 | 30 | 81 nM
29 | Ac-RC[dL]H[dF]RWC-NH2 (disulfide 2-8) [Compound 1: Ac-Arg-cyclo[Cys-D-Leu-His-D-Phe-Arg-Trp-Cys]-NH2] | 1.13 | 0.79 nM
30 | Ac-RC[dA][His(3-Me)][dF]RWC-NH2 (disulfide 2-8) [Compound 5: Ac-Arg-cyclo[Cys-D-Ala-His(3-Me)-D-Phe-Arg-Trp-Cys]-NH2] |  | 406 nM
31 | B8 | > 290 | > 10000 nM

What follows are binders tested against melanocortin-4 receptor (human, UniProt P32245 1-332) (assay: cell-based or functional assay).
Chain of melanocortin-4 receptor (P32245 whole entry): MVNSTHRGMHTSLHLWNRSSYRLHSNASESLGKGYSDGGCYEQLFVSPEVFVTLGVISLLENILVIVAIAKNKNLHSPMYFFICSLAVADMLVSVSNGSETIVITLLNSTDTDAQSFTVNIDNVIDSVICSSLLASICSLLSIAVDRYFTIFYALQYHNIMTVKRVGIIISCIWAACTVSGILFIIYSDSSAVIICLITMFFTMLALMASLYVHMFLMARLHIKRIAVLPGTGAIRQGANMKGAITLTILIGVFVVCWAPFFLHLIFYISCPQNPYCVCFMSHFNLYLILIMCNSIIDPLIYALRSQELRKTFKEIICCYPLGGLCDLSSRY

Row | Binder | cAMP Assay (EC-50)
32 | B1 | 13.7 nM
33 | B9 | 2.7 nM
34 | Ac-RC[dI]H[dF]RWC-NH2 (disulfide 2-8) [Compound 2: Ac-Arg-cyclo[Cys-D-Ile-His-D-Phe-Arg-Trp-Cys]-NH2] | 1 nM
35 | Ac-RC[dV]H[dF]RWC-NH2 (disulfide 2-8) [Compound 4: Ac-Arg-cyclo[Cys-D-Val-His-D-Phe-Arg-Trp-Cys]-NH2] | 1.34 nM
36 | B2 | 0.26 nM
37 | B3 | 56 nM
38 | B4 | 1.6 nM
39 | B5 | < 0.5 nM
40 | B6 | 7.5 nM
41 | B10 | 45.1 nM
42 | B7 | 3 nM
43 | Ac-RC[dL]H[dF]RWC-NH2 (disulfide 2-8) [Compound 1: Ac-Arg-cyclo[Cys-D-Leu-His-D-Phe-Arg-Trp-Cys]-NH2] | 0.7 nM
44 | Ac-RC[dA][His(3-Me)][dF]RWC-NH2 (disulfide 2-8) [Compound 5: Ac-Arg-cyclo[Cys-D-Ala-His(3-Me)-D-Phe-Arg-Trp-Cys]-NH2] | 1.15 nM
45 | B8 | 34 nM

Each binder was assayed against melanocortin-1 receptor (human, UniProt Q01726 1-317) (assay: cell-based or functional assay).
Chain of melanocortin-1 receptor (Q01726 whole entry): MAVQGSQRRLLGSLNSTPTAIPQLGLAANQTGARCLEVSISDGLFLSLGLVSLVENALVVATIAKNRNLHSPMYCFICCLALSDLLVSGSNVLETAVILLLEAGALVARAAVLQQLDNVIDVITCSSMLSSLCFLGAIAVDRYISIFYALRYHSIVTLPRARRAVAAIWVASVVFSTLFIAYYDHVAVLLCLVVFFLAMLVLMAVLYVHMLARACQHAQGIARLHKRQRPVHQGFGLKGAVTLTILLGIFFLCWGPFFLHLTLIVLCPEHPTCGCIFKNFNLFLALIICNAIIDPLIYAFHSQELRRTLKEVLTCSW

Row | Binder | Ratios of EC50 values: MC1/4 | cAMP Assay (EC-50)
46 | B1 | 15 | 195 nM
47 | Ac-RC[dTle]H[dF]RWC-NH2 (disulfide 2-8) [Compound 3: Ac-Arg-cyclo[Cys-D-Tle-His-D-Phe-Arg-Trp-Cys]-NH2] |  | 1 nM
48 | B9 | 2.31 | 6.2 nM
49 | Ac-RC[dI]H[dF]RWC-NH2 (disulfide 2-8) [Compound 2: Ac-Arg-cyclo[Cys-D-Ile-His-D-Phe-Arg-Trp-Cys]-NH2] | 0.69 | 0.69 nM
50 | Ac-RC[dV]H[dF]RWC-NH2 (disulfide 2-8) [Compound 4: Ac-Arg-cyclo[Cys-D-Val-His-D-Phe-Arg-Trp-Cys]-NH2] | 0.93 | 1.25 nM
51 | B2 | 15 | 4 nM
52 | B3 | 5 | 280 nM
53 | B4 | 40 | 71 nM
54 | B5 | > 3 | 1.7 nM
55 | B6 | 120 | 888 nM
56 | Ac-RC[dA][His(1-Me)][dF]RWC-NH2 (disulfide 2-8) [Compound 6: Ac-Arg-cyclo[Cys-D-Ala-His(1-Me)-D-Phe-Arg-Trp-Cys]-NH2] |  | 30.4 nM
57 | B10 | 6.67 | 301 nM
58 | B7 | 90 | 248 nM
59 | Ac-RC[dL]H[dF]RWC-NH2 (disulfide 2-8) [Compound 1: Ac-Arg-cyclo[Cys-D-Leu-His-D-Phe-Arg-Trp-Cys]-NH2] | 0.68 | 0.47 nM
60 | Ac-RC[dA][His(3-Me)][dF]RWC-NH2 (disulfide 2-8) [Compound 5: Ac-Arg-cyclo[Cys-D-Ala-His(3-Me)-D-Phe-Arg-Trp-Cys]-NH2] |  | 4.1 nM
61 | B8 | 8 | 273 nM
